Measured values taken from patent publication US20210292423A1.
Blank lines part the entries; values can stand above or below the substance they belong to.

What was measured:
[1] = biological target: human CD123 (IL3RA) on cells (human) (UniProt P26951); experiment: cell-based or functional assay
[2] = biological target: Macaca fascicularis CD3ε/δ-Fc fusion protein (Macaca fascicularis) (UniProt Q95LI8); experiment: SPR Biacore, ratio against human CD3εδ
[3] = biological target: Macaca fascicularis CD3 (TCR complex) on cyno HSC-F cells (Macaca fascicularis) (UniProt Q95LI5); experiment: flow cytometry, cyno HSC-F
Chain of Macaca fascicularis CD3 (TCR complex) on cyno HSC-F cells (Macaca fascicularis) (Q95LI5 22-198, one chain of several): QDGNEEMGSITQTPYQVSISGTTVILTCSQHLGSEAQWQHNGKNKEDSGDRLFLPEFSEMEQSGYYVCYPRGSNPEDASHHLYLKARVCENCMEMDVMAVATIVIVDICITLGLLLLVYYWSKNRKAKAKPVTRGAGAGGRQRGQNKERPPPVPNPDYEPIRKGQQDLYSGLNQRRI

[4] = biological target: human CD3 (TCR complex) on primary human T cells or Jurkat cells (human) (UniProt P07766); experiment: flow cytometry, Jurkat E6-1
Chain of human CD3 (TCR complex) on primary human T cells or Jurkat cells (human) (P07766 23-207, one chain of several): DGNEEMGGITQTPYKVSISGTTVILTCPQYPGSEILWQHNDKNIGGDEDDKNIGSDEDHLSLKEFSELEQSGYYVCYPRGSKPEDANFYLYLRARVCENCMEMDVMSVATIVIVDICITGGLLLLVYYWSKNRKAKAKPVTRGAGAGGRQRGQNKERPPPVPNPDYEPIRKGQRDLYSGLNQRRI

Chain of human CD123 (IL3RA) on cells (human) (P26951 19-378): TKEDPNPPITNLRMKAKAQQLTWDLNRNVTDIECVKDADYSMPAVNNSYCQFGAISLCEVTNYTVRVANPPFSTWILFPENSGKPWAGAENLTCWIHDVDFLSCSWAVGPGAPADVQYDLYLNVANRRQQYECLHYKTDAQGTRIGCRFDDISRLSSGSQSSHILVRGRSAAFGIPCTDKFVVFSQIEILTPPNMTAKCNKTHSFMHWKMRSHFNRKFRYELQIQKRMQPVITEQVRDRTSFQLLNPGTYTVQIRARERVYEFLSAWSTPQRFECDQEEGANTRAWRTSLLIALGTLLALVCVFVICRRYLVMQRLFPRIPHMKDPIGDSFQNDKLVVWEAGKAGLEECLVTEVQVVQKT
Chain of CODV-Fab 7G3 × I2C (bispecific antibody) (light, part): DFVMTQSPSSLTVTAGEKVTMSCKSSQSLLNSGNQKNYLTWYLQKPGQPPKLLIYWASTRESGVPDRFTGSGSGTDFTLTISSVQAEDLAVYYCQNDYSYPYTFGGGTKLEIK
Chain of CODV-Fab 7G3 × I2C (bispecific antibody) (heavy, part): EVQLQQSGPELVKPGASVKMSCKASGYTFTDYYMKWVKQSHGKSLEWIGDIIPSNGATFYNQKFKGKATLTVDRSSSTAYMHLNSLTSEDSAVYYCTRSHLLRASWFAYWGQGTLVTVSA
Chain of Macaca fascicularis CD3ε/δ-Fc fusion protein (Macaca fascicularis) (chain, as listed by the source mutant, chain 1 of 2): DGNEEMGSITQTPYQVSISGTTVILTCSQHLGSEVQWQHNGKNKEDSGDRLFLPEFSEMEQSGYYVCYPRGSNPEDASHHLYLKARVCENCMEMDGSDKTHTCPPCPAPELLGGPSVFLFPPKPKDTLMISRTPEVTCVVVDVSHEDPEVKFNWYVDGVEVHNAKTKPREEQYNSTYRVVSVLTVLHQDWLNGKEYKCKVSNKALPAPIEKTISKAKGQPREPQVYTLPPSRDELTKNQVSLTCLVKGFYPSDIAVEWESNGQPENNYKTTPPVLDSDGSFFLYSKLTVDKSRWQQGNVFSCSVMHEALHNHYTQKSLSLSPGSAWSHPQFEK
Chain of Macaca fascicularis CD3ε/δ-Fc fusion protein (Macaca fascicularis) (Q95LI8 22-105, stated change not applied, chain 2 of 2): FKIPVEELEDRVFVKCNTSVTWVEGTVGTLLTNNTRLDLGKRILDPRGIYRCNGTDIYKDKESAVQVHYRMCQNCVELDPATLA

Substance: CODV-Fab 7G3 × I2C (bispecific antibody)
- Activity EC50 [ng/ml], cytotoxic assay on THP-1 with human T cells [1]: 20 ng/mL

- Ratio KD(cy)/KD(hu) [2]: 5
Substance: SP-34 (antibody)

- geometric mean of relative fluorescence intensity (rfu) [3]: 1260 rfu
- geometric mean of relative fluorescence intensity (rfu) [4]: 7 rfu
Substance: FN18 (antibody)
